According to patent publication US20230390362A1, “USE OF TRIGONAL AGONIST HAVING ACTIVITIES TO ALL OF GLUCAGON, GLP-1, AND GIP RECEPTORS IN TREATMENT OF SEQUELAE FOLLOWING RESPIRATORY INFECTIOUS DISEASES” (HANMI PHARM. CO., LTD., priority 2020, published 2023):
Positions of bridges follow the written chain, without caps; N, C: chain ends. Non-standard residues stand in square brackets, D forms with d. No end group written: not given here. *: point of attachment. Acetyl(2-(4-imidazolyl)) = O=C(Cc1c[nH]cn1)*; Aib = CC(C)(N)C(=O)O

T1: human GIP receptor (human, UniProt P48546 22-466)
T1 sequence (looked up): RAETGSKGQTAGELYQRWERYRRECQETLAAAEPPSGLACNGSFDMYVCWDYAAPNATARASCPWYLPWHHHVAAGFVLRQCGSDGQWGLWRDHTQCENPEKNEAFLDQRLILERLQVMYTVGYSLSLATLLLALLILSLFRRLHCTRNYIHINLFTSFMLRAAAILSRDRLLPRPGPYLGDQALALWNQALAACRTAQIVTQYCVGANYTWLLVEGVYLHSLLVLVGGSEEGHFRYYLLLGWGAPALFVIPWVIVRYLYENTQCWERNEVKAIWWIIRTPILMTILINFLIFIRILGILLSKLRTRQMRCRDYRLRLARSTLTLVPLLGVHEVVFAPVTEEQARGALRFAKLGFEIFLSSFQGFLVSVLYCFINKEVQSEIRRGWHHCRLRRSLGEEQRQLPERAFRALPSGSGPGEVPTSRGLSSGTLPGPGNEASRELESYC

B1: trigonal agonist of SEQ ID NO: 67 (peptide)
peptide: Y[Aib]QGTFTSDYSKYLDECAAKDFVQWLLDHHPSSGQPPPS
modifications: bridge 16-20
B2: trigonal agonist of SEQ ID NO: 66 (peptide)
peptide: Y[Aib]QGTFTSDYSKYLDECRAKDFVQWLLDHHPSSGQPPPS
modifications: bridge 16-20
B3: trigonal agonist of SEQ ID NO: 80 (peptide)
peptide: H[Aib]EGTFTSDYSIAMDEIHQKDFVDWLLAEKC
modifications: bridge 16-20
B4: trigonal agonist of SEQ ID NO: 68 (peptide)
peptide: Y[Aib]QGTFTSDYSKCLDEKAAKEFVQWLLDHHPSSGQPPPS
modifications: bridge 16-20
B5: trigonal agonist of SEQ ID NO: 72 (peptide)
peptide: Y[Aib]QGTFTSDCSKYLDERAAKDFVQWLLDHHPSSGQPPPS
modifications: bridge 16-20
B6: trigonal agonist of SEQ ID NO: 8 (peptide)
peptide: H[Aib]QGTFTSDVSKYLDGQAAQEFVAWLLKGC
B7: trigonal agonist of SEQ ID NO: 74 (peptide)
peptide: {Acetyl(2-(4-imidazolyl))}-[Aib]QGTFTSDYSKCLDEKRAKEFVQWLLDHHPSSGQPPPS
modifications: bridge 15-19
B8: trigonal agonist of SEQ ID NO: 65 (peptide)
peptide: H[Aib]QGTFTSDYSKCLDEKRAKEFVQWLLDHHPSSGQPPPS
modifications: bridge 16-20
B9: trigonal agonist of SEQ ID NO: 60 (peptide)
peptide: {Acetyl(2-(4-imidazolyl))}-[Aib]QGTFTSDYSIAMDEKHCKDFVNWLLNTK
modifications: bridge 15-19
B10: trigonal agonist of SEQ ID NO: 85 (peptide)
peptide: {Acetyl(2-(4-imidazolyl))}-[Aib]QGTFTSDYSIAMDEIHQKDFVNWLLAQC
modifications: bridge 15-19
B11: trigonal agonist of SEQ ID NO: 82 (peptide)
peptide: {Acetyl(2-(4-imidazolyl))}-[Aib]QGTFTSDYSKYLDEKRQKEFVQWLLDTC
modifications: bridge 15-19
B12: trigonal agonist of SEQ ID NO: 71 (peptide)
peptide: Y[Aib]QGTFTSDYSKYLDERACKDFVQWLLDHHPSSGQPPPS
modifications: bridge 16-20
B13: trigonal agonist of SEQ ID NO: 61 (peptide)
peptide: {Acetyl(2-(4-imidazolyl))}-[Aib]QGTFTSDYSIAMDEIACKDFVNWLLNTK
modifications: bridge 15-19
B14: trigonal agonist of SEQ ID NO: 70 (peptide)
peptide: Y[Aib]QGTFTSDYSKCLDEKRAKDFVQWLLDHHPSSGQPPPS
modifications: bridge 16-20

Experiments:
Experiment in all cases: cell-based or functional assay
human GLP-1 receptor = human GLP-1 receptor (human, UniProt P43220 24-463)
human GIP receptor = molecular target: T1, human GIP receptor
human GCG receptor = human GCG receptor (human, UniProt P47871 26-477)
Chain of human GCG receptor (P47871 26-477): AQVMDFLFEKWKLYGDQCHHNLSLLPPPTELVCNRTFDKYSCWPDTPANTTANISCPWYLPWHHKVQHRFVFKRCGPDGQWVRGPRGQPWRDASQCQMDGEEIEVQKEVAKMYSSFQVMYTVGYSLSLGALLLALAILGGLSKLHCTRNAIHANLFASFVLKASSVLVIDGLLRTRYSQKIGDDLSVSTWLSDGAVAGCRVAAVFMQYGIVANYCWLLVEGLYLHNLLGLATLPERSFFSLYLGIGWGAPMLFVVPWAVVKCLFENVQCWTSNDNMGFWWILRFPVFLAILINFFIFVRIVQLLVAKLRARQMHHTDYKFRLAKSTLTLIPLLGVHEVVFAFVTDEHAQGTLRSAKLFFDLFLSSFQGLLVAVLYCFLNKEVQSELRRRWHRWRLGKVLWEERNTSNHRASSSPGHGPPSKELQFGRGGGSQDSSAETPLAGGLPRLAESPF

Binder | In vitro activity relative to native peptide (%), vs. GLP-1 (cAMP EC50) (human GLP-1 receptor) [%] | In vitro activity relative to native peptide (%), vs. GIP (cAMP EC50) (human GIP receptor) [%] | In vitro activity relative to native peptide (%), vs. Glucagon (cAMP EC50) (human GCG receptor) [%]
B1 | 28.5 | 39.8 | 46.2
B2 | 15.8 | 17.2 | 172
B3 | 8.1 | 0.1 | 0
B4 | 27.9 | 107 | 8.8
B5 | 11.5 | 1.6 | 1
B6 | 14.2 | < 0.1 | 0.1
B7 | 12.9 | 1 | 0.9
B8 | 95.4 | 11.6 | 25.2
B9 | 106 | 8.2 | < 0.1
B10 | 4.3 | 0.3 | < 0.1
B11 | 9.5 | < 0.1 | 1.1
B12 | 90.1 | 94.7 | 12.7
B13 | 59.8 | 2.8 | < 0.1
B14 | 15.1 | 64.4 | 71.3
